Results on twelve molecules are retold here after patent US20100273722A1 (YALE UNIVERSITY, published 2010).

Series [1] deals with the molecule itself. In words: sedimentation equilibrium AUC, self-association, monomer-n-mer fit, 25 C.
Series [2] concerns the molecule itself. In words: sedimentation equilibrium AUC, self-association (tetramer), 25 C.
Series [3] concerns the target T1, human Lyn (residues 62-122) SH3 domain-GST fusion protein (human, UniProt P07948 62-122).
T1 construct: range 62-122; also called Lyn SH3
In words: fluorescence polarization, 50 nM labeled peptide, SH3-GST titrated.

Series [4] concerns the target T2, human Lck (residues 62-128) SH3 domain-GST fusion (human, UniProt P06239 62-128).
T2 construct: range 62-128; also called Lck SH3
The description is as above.

Series [5] has as its target T3, human Hck (residues 77-137 of full-length kinase) SH3 domain-GST fusion protein (human, UniProt P08631 77-137).
T3 construct: range 77-137; also called Hck SH3
Described as above.

Series [6] deals with T4, human Fyn (residues 81-142) SH3 domain-GST fusion protein (human, UniProt P06241 81-142).
T4 construct: range 81-142; also called Fyn SH3
Described as above.

The target of series [7] is T1, human Lyn (residues 62-122) SH3 …. In words: fluorescence polarization, 50 nM labeled peptide, SH3-GST titrated; data above 50 micromolar target excluded from the fit.
The target of series [8] is T3, human Hck (residues 77-137 of …). The series is described as above.
Series [9] deals with the molecule itself. In words: sedimentation equilibrium AUC, self-association (dimer), 25 C.
Series [10] concerns the molecule itself. In words: AUC, self-association, monomer/dimer/tetramer model, dimer term, 25 C; dimer term of the monomer/dimer/tetramer model, 25 C.

Residue numbers refer to the chain shown, from its start. No end group written: not given here.

T2 sequence (P06239 62-128): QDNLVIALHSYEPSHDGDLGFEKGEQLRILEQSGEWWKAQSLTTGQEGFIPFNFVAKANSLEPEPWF
T1 sequence (P07948 62-122): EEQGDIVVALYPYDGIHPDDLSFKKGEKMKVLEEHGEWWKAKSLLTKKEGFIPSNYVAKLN
T4 sequence (P06241 81-142): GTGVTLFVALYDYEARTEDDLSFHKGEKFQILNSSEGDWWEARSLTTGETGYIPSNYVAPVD
T3 sequence (P08631 77-137): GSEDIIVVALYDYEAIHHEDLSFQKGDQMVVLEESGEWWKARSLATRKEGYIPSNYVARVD

B1: aPP^Y7A (peptide)
chain: GPSQPTAPGDDAPVEDLIRFYDNLQQYLNVVTRHRY-NH2
notes: Synthetic aPP variant; entries are for its self-association (tetramer)
As for B1, the “lnKA (n = 4)” value in series [1] came out at 26.3. In series [2], the affinity, expressed as Kd, was 0.0039 nM.

B2: aPP^Y7AQ25R (peptide)
chain: GPSQPTAPGDDAPVEDLIRFYDNLRQYLNVVTRHRY-NH2
notes: as for B1
Consider B2, for which, in series [1], the “lnKA (n = 4)” value was 29.3. In series [2], this molecule displayed a Kd of 0.00018 nM.

B3: PP2^Flu (designed binder)
chain: APPLPPRNRGDDAPVEDLIRFYDNLQQYLNVVTRHRYC
modifications: ends and bridges not checked; also: fluorescently labeled, site and dye not given here
notes: also called PP2 (fluorescently labeled)
With B3, the Kd in series [3] is 3700 nM; in series [4], 2700 nM; in series [5], 1300 nM; in series [6] it was 14000 nM.

B4: PP3^Flu (designed binder)
chain: B3 chain with G10P, D11R
modifications: ends and bridges not checked; also: fluorescently labeled, site and dye not given here
notes: also called PP3 (fluorescently labeled)
For B4, the Kd in series [7] was 1800 nM; in series [8], 880 nM; in [4], 1430 nM; in [6] it was 2100 nM.

B5: PP1^Flu (designed binder)
chain: B3 chain with R9P
modifications: ends and bridges not checked; also: fluorescently labeled, site and dye not given here
notes: also called PP1 (fluorescently labeled)
B5: the Kd is 4900 nM in series [3], 40000 nM in [4], 3800 nM in [5] and 25000 nM in series [6].

B6: aPP^F20A (peptide)
chain: GPSQPTYPGDDAPVEDLIRAYDNLQQYLNVVTRHRY-NH2
notes: as for B1
Consider B6, for which, in [1], the “lnKA (n = 4)” value worked out at 23.3. Also, the Kd in series [2] was 0.076 nM.

B7: avian pancreatic polypeptide (aPP) (peptide)
chain: GPSQPTYPGDDAPVEDLIRFYDNLQQYLNVVTRHRY
modifications: ends and bridges not checked
notes: Bought from American Peptide Company; entries are for its self-association (dimer); also called wt aPP
As to B7, the Kd in [9] came to 4100 nM. In addition, the “lnKA (n = 2)” value in [1] worked out at 12.4.

B8: aPP^Y7AP13SV14P (peptide)
chain: GPSQPTAPGDDASPEDLIRFYDNLQQYLNVVTRHRY-NH2
notes: Synthetic aPP variant with the proline switch; entries are for its self-association (monomer/dimer/tetramer)
For the molecule B8, the Kd in [10] came out at 530000 nM.

B9: aPP^Y21A (peptide)
chain: GPSQPTYPGDDAPVEDLIRFADNLQQYLNVVTRHRY-NH2
notes: Synthetic aPP variant; entries are for its self-association (dimer)
In turn, B9 returned a Kd in series [9] of 1300 nM. In addition, the “lnKA (n = 2)” value in series [1] was found to be 13.6.

B10: pancreatic peptide YY (PYY) (peptide)
chain: not shown
modifications: C-terminal carboxamide
notes: Synthetic; entries are for its self-association
As to B10, binding in series [9] was put at a Kd of 830000 nM. Further, in series [1], the “lnKA (n = 2)” value was 7.09.

B11: aPP^Y7AT6E (peptide)
chain: GPSQPEAPGDDAPVEDLIRFYDNLQQYLNVVTRHRY-NH2
notes: entries are for its self-association (tetramer); also called aPP^Y7AAT6E
For B11, the “lnKA (n = 4)” value in series [1] is 29.3. For the same molecule, the Kd in series [2] worked out at 0.0002 nM.

B12: aPP^Y7AP13VV14P (peptide)
chain: GPSQPTAPGDDAVPEDLIRFYDNLQQYLNVVTRHRY-NH2
notes: Synthetic aPP variant; entries are for its self-association (tetramer); also called aPP^Y7AP13W14P
In the case of B12, the “lnKA (n = 4)” value in series [1] came to 27.9. In addition, in series [2], binding was characterised by a dissociation constant (Kd) of 0.00075 nM.
